Values of other authors as cited in paper PMC7663405.

Target: CD80 (Homo sapiens) (UniProt P33681)
Chain of UniProt P33681 (P33681 35-242): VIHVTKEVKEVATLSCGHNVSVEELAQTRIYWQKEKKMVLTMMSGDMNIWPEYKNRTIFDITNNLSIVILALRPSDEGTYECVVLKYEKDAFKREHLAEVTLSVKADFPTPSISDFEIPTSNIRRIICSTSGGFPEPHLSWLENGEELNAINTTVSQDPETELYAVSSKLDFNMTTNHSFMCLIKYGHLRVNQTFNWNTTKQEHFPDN

- Kd: 1900 nM
Substance: PD-L1 (from UniProt Q9NZQ7)
